According to publication PMC12170943:

Test system: OmpRAc (phosphorylated by EnvZAcC) (Acidovorax citrulli xjL12 (group II))
Test: MST
Conditions: EMSA: 10 mM Tris-HCl pH 7.4, 50 mM KCl, 50 mM MgCl2, 5% glycerol, room temperature 20 min, 50 ng probe in 20 uL, MST: 50 mM Tris-HCl pH 7.4, 150 mM NaCl

PhrpG Cy5 probe (MST) was tested, and the Kd was 5.72 µM.
